Experimental data: publication PMC3776929 (Cell, 2013)

T1: Swc2 (S. cerevisiae, UniProt Q03388 1-795)
T1 construct: Swc2, C-Module subunit of SWR1, S. cerevisiae; source: endogenous, S. cerevisiae; co-purified in the SWR1 complex
T1 sequence (looked up): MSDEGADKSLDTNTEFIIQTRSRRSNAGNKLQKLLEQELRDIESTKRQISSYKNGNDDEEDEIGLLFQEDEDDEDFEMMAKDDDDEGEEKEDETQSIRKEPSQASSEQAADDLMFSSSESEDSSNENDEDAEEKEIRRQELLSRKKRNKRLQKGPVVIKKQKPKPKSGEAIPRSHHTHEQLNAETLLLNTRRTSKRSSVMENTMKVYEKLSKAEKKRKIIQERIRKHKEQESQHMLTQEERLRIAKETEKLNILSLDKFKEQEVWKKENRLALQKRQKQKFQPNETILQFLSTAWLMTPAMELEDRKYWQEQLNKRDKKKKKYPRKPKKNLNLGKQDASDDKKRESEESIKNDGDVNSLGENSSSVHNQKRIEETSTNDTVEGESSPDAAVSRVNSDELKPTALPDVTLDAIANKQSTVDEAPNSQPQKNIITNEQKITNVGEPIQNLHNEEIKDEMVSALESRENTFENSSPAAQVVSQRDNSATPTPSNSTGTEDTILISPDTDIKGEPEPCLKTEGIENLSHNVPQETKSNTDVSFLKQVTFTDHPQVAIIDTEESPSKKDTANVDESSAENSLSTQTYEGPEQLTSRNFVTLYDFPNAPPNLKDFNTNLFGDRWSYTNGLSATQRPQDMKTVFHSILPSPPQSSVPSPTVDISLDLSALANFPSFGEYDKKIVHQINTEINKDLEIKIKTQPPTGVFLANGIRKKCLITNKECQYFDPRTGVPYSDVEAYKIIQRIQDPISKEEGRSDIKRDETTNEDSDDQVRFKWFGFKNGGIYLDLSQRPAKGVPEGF

B1: Bdf1 (natural protein, S. cerevisiae, UniProt P35817 1-686, looked up)
chain: MTDITPVQNDVDVNGNNVNDDVSSNLKRPIDQGDPSNGLAEEENPANNQLHLKKARLDGDALTSSPAGLAENGIEGATLAANGENGYNATGSGAEDEQQGLKKEEGGQGTKQEDLDENSKQELPMEVPKEPAPAPPPEPDMNNLPQNPIPKHQQKHALLAIKAVKRLKDARPFLQPVDPVKLDIPFYFNYIKRPMDLSTIERKLNVGAYEVPEQITEDFNLMVNNSIKFNGPNAGISQMARNIQASFEKHMLNMPAKDAPPVIAKGRRSSAQEDAPIVIRRAQTHNGRPKRTIHPPKSKDIYPYESKKPKSKRLQQAMKFCQSVLKELMAKKHASYNYPFLEPVDPVSMNLPTYFDYVKEPMDLGTIAKKLNDWQYQTMEDFERDVRLVFKNCYTFNPDGTIVNMMGHRLEEVFNSKWADRPNLDDYDSDEDSRTQGDYDDYESEYSESDIDETIITNPAIQYLEEQLARMKVELQQLKKQELEKIRKERRLARGSKKRGKRSKGRSGSKNASSKGRRDKKNKLKTVVTYDMKRIITERINDLPTSKLERAIDIIKKSMPNISEDDEVELDLDTLDNHTILTLYNTFFRQYESSSGASNGLDGTSGVTRDASSLSPTSAGSRKRRSKALSQEEQSRQIEKIKNKLAILDSASPLSQNGSPGQIQSAAHNGFSSSSDDDVSSESEEE
notes: Bdf1, N-Module subunit of SWR1, S. cerevisiae; source: endogenous, S. cerevisiae; co-purified in the SWR1 complex
B2: Swc3 (natural protein, S. cerevisiae, UniProt P31376 1-625, looked up)
chain: MPAVLRTRSKESSIEQKPASRTRTRSRRGKRGRDDDDDDDDEESDDAYDEVGNDYDEYASRAKLATNRPFEIVAGLPASVELPNYNSSLTHPQSIKNSGVLYDSLVSSRRTWVQGEMFELYWRRPKKIVSESTPAATESPTSGTIPLIRDKMQKMCDCVMSGGPHTFKVRLFILKNDKIEQKWQDEQELKKKEKELKRKNDAEAKRLRMEERKRQQMQKKIAKEQKLQLQKENKAKQKLEQEALKLKRKEEMKKLKEQNKNKQGSPSSSMHDPRMIMNLNLMAQEDPKLNTLMETVAKGLANNSQLEEFKKFIEIAKKRSLEENPVNKRPSVTTTRPAPPSKAKDVAEDHRLNSITLVKSSKTAATEPEPKKADDENAEKQQSKEAKTTAESTQVDVKKEEEDVKEKGVKSEDTQKKEDNQVVPKRKRRKNAIKEDKDMQLTAFQQKYVQGAEIILEYLEFTHSRYYLPKKSVVEFLEDTDEIIISWIVIHNSKEIEKFKTKKIKAKLKADQKLNKEDAKPGSDVEKEVSFNPLFEADCPTPLYTPMTMKLSGIHKRFNQIIRNSVSPMEEVVKEMEKILQIGTRLSGYNLWYQLDGYDDEALSESLRFELNEWEHAMRSRRHKR
notes: Swc3, C-Module subunit of SWR1, S. cerevisiae; source: endogenous, S. cerevisiae; co-purified in the SWR1 complex
B3: Rvb1 (natural protein, S. cerevisiae, UniProt Q03940 1-463, looked up)
chain: MVAISEVKENPGVNSSNSGAVTRTAAHTHIKGLGLDESGVAKRVEGGFVGQIEAREACGVIVDLIKAKKMSGRAILLAGGPSTGKTALALAISQELGPKVPFCPLVGSELYSVEVKKTETLMENFRRAIGLRIKETKEVYEGEVTELTPEDAENPLGGYGKTISHVIVGLKSAKGTKTLRLDPTIYESIQREKVSIGDVIYIEANTGAVKRVGRSDAYATEFDLETEEYVPLPKGEVHKKKEIVQDVTLHDLDVANARPQGGQDVISMMGQLLKPKKTEITEKLRQEVNKVVAKYIDQGVAELIPGVLFIDEVNMLDIEIFTYLNKALESNIAPVVVLASNRGMTTVRGTEDVISPHGVPPDLIDRLLIVRTLPYDKDEIRTIIERRATVERLQVESSALDLLATMGTETSLRYALQLLAPCGILAQTSNRKEIVVNDVNEAKLLFLDAKRSTKILETSANYL
notes: Rvb1, AAA+ ATPase, S. cerevisiae (YDR190C); also called AAA+ ATPase Rvb1; source: endogenous, S. cerevisiae; co-purified in the SWR1 and INO80 complexes
B4: Arp4 (natural protein, S. cerevisiae, UniProt P80428 1-489, looked up)
chain: MSNAALQVYGGDEVSAVVIDPGSYTTNIGYSGSDFPQSILPSVYGKYTADEGNKKIFSEQSIGIPRKDYELKPIIENGLVIDWDTAQEQWQWALQNELYLNSNSGIPALLTEPVWNSTENRKKSLEVLLEGMQFEACYLAPTSTCVSFAAGRPNCLVVDIGHDTCSVSPIVDGMTLSKSTRRNFIAGKFINHLIKKALEPKEIIPLFAIKQRKPEFIKKTFDYEVDKSLYDYANNRGFFQECKETLCHICPTKTLEETKTELSSTAKRSIESPWNEEIVFDNETRYGFAEELFLPKEDDIPANWPRSNSGVVKTWRNDYVPLKRTKPSGVNKSDKKVTPTEEKEQEAVSKSTSPAANSADTPNETGKRPLEEEKPPKENNELIGLADLVYSSIMSSDVDLRATLAHNVVLTGGTSSIPGLSDRLMTELNKILPSLKFRILTTGHTIERQYQSWLGGSILTSLGTFHQLWVGKKEYEEVGVERLLNDRFR
notes: Arp4, actin-related protein, N-Module subunit of SWR1, S. cerevisiae; source: endogenous, S. cerevisiae; co-purified in the SWR1 complex
B5: Rvb2 (natural protein, S. cerevisiae, UniProt Q12464 1-471, looked up)
chain: MSIQTSDPNETSDLKSLSLIAAHSHITGLGLDENLQPRPTSEGMVGQLQARRAAGVILKMVQNGTIAGRAVLVAGPPSTGKTALAMGVSQSLGKDVPFTAIAGSEIFSLELSKTEALTQAFRKSIGIKIKEETELIEGEVVEIQIDRSITGGHKQGKLTIKTTDMETIYELGNKMIDGLTKEKVLAGDVISIDKASGKITKLGRSFARSRDYDAMGADTRFVQCPEGELQKRKTVVHTVSLHEIDVINSRTQGFLALFTGDTGEIRSEVRDQINTKVAEWKEEGKAEIVPGVLFIDEVHMLDIECFSFINRALEDEFAPIVMMATNRGVSKTRGTNYKSPHGLPLDLLDRSIIITTKSYNEQEIKTILSIRAQEEEVELSSDALDLLTKTGVETSLRYSSNLISVAQQIAMKRKNNTVEVEDVKRAYLLFLDSARSVKYVQENESQYIDDQGNVQISIAKSADPDAMDTTE
notes: Rvb2, AAA+ ATPase, S. cerevisiae (YPL235W); also called AAA+ ATPase Rvb2; source: endogenous, S. cerevisiae; co-purified in the SWR1 and INO80 complexes
B6: Swc4 (natural protein, S. cerevisiae, UniProt P53201 1-476, looked up)
chain: MSSSDIFDVLNIKQKSRSPTNGQVSVPSSSAANRPKPQVTGMQRELFNLLGENQPPVVIKSGNNFKEKMLSTSKPSPWSFVEFKANNSVTLRHWVKGSKELIGDTPKESPYSKFNQHLSIPSFTKEEYEAFMNENEGTQKSVESEKNHNENFTNEKKDESKNSWSFEEIEYLFNLCKKYDLRWFLIFDRYSYNNSRTLEDLKEKFYYTCRNYFKASDPSNPLLSSLNFSAEKEIERKKYLQRLLSRSAAEIAEEEALVVESKKFEMAAKRTLAERESLLRLLDSPHSDQTITQYLTSQGMSQLYNALLADKTRKRKHDLNIPENPWMKQQQQFAQHRQLQQLNVKKSEVKENLSPKKTKRQRQEMQTALKRKSESAYAEQLLKDFNSDERKALGVITHGEKLSPGVYLRSTKLSTFKPALQNKILAILQELSLPSRPVMPSFDVMERQEELLKKINTLIDLKKHVDKYEAGMSITK
notes: Swc4, N-Module subunit of SWR1, S. cerevisiae; source: endogenous, S. cerevisiae; co-purified in the SWR1 complex

Key:
Swc2 = biological target: T1, Swc2; assay: cross-linking; ∼45 μg affinity-purified SWR1 cross-linked with 1 mM DSS d0/d12 in SWR1 buffer, 37°C, 30 min; trypsin, SEC enrichment, LC-MS/MS, xQuest (CX-MS); conditions: both partners purified
[1] = biological target: T2, Swr1, FLAG-tagged catalytic subunit of the SWR1 complex (S. cerevisiae, UniProt Q05471 1-1514); assay: as above; conditions: both partners purified
T2 construct: Swr1, catalytic ATPase subunit of the SWR1 complex, S. cerevisiae; HSA domain in the N-terminal half, split ATPase domain with long insert in the C-terminal half; also called Swr1-3xFLAG; Swr1 ATPase
T2 sequence (Q05471 whole entry, the tested form may be a part, one chain of several): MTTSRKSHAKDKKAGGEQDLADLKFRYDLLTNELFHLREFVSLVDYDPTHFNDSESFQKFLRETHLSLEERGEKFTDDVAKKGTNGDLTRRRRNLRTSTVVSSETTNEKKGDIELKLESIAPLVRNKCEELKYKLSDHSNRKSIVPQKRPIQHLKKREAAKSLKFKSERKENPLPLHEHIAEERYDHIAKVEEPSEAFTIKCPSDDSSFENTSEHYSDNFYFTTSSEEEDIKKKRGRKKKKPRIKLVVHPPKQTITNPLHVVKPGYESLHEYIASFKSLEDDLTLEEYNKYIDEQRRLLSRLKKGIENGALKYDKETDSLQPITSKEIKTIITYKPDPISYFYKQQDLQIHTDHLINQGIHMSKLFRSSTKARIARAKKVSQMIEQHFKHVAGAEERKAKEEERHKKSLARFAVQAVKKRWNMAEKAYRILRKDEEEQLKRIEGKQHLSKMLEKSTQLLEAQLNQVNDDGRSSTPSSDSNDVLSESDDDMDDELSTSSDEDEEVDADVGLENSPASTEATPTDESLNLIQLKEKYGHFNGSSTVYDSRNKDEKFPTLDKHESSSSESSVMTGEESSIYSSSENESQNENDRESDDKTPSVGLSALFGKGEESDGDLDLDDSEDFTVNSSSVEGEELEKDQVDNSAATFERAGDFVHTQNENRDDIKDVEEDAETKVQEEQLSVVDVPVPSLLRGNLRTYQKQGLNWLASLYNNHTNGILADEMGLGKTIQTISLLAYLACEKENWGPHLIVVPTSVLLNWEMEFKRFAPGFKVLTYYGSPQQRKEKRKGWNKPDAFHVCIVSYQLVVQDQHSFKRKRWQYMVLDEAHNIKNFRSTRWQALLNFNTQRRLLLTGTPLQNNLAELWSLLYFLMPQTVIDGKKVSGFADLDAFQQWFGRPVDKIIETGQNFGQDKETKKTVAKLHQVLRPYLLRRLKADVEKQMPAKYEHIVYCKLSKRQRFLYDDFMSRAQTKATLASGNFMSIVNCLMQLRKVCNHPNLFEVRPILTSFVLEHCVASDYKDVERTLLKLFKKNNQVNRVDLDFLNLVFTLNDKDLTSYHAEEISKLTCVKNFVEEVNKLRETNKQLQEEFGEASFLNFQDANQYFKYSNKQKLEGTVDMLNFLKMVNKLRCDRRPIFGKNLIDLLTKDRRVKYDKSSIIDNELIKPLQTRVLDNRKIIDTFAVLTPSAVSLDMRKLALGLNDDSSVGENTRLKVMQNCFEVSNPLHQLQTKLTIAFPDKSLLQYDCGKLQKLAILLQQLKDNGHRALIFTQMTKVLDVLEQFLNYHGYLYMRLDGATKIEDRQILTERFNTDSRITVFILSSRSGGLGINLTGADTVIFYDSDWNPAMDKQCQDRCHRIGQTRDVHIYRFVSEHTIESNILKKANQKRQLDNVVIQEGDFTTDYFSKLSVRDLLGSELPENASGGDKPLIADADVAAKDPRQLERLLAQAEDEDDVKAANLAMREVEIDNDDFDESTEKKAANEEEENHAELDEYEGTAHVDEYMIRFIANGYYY

Ino80 = biological target: T3, Ino80 (UniProt P53115 1-1489); assay: co-IP; INO80 complex purified by affinity and glycerol gradient, resolved on 4%-12% Bis-Tris gels in MOPS buffer; band intensities normalised for protein size; conditions: partners not purified
T3 construct: Ino80, catalytic subunit of the INO80 complex
T3 sequence (P53115 whole entry): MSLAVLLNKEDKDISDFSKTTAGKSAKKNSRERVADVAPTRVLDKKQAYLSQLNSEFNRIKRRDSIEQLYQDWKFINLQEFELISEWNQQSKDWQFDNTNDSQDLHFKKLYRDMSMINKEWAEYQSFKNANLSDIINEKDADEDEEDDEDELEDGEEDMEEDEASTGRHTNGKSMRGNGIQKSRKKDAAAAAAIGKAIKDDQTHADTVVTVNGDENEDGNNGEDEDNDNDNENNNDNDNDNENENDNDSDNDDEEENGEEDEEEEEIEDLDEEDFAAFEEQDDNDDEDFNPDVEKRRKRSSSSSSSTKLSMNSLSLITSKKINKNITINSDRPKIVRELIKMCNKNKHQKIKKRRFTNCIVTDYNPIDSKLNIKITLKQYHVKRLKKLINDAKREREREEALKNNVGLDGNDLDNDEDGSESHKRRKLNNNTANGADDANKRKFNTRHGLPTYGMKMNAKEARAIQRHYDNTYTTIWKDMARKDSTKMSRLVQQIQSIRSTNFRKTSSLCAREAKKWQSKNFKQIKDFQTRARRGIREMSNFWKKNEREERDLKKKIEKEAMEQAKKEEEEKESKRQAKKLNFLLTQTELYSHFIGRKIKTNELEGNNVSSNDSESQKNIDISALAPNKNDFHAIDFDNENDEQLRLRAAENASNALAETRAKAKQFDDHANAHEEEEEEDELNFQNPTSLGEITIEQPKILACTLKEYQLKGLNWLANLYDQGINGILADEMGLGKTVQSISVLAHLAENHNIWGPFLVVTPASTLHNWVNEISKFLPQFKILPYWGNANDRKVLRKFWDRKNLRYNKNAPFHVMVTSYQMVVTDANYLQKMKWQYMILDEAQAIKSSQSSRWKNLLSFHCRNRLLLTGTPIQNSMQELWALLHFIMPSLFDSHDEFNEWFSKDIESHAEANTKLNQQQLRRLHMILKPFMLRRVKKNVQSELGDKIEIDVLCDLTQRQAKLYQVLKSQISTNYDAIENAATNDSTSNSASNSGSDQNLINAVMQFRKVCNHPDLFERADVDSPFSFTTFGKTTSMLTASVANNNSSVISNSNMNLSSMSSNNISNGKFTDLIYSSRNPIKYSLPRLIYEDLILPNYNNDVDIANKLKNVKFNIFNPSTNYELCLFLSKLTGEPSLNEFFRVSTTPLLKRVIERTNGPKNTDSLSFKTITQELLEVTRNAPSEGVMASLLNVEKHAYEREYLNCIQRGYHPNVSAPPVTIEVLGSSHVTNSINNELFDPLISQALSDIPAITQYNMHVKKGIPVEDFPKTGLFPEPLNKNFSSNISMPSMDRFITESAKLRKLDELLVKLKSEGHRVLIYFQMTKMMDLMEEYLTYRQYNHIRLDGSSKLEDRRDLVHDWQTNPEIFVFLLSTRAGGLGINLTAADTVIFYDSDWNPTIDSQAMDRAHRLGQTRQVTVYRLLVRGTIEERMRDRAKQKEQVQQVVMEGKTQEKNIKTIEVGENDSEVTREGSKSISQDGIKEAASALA

Arp4 = biological target: B4; assay: cross-linking; ∼45 μg affinity-purified SWR1 cross-linked with 1 mM DSS d0/d12 in SWR1 buffer, 37°C, 30 min; trypsin, SEC enrichment, LC-MS/MS, xQuest (CX-MS); conditions: both partners purified
[2] = biological target: T2, Swr1, FLAG-tagged catalytic subunit of …; assay: co-IP; FLAG affinity purification of SWR1 (or a subcomplex) from S. cerevisiae, eluted with 3× FLAG peptide; SDS-PAGE (4%-12% Bis-Tris), Coomassie or SYPRO Orange stain; band intensities normalised for protein size for the stoichiometry; conditions: partners not purified
Swc3 = biological target: B2; assay: cross-linking; ∼45 μg affinity-purified SWR1 cross-linked with 1 mM DSS d0/d12 in SWR1 buffer, 37°C, 30 min; trypsin, SEC enrichment, LC-MS/MS, xQuest (CX-MS); conditions: both partners purified

B1: binds (Swc2).

B2: binds [1].

For B3, the “stoichiometry N” value (Ino80) was roughly 3, the binding result (Arp4) was “binds” and the “stoichiometry N” value [2] was roughly 3.

B4: binds (Swc3).

In the case of B5, the “stoichiometry N” value (Ino80) is reported as roughly 3 and the “stoichiometry N” value [2] is reported as roughly 3.

B6: binds [1]; binds (Arp4).
